Test results from article PMC8257627.

Assays:
[1] = biological target: nucleosome core particle reconstituted with 207 bp DNA (NCP207) (human) (UniProt P0C0S8); test: fluorescence polarisation; 5 nM fluorescein-labelled NCP with increasing AF10PZP WT or mutants; 75 mM NaCl, 25 mM Tris-HCl pH 7.5, 0.00625% Tween20, 5 mM DTT; fit to a binding isotherm, S1/2
[2] = biological target: nucleosome reconstituted with 147 bp 601 DNA (NCP147) (human) (UniProt P0C0S8); test: as above
AF10PZP D43K (mouse) = test: fluorescence polarization; settings: 75 mM NaCl; S1/2; FP: 25 mM Tris-HCl pH 7.5, 75 mM NaCl, 0.00625% Tween20, 5 mM DTT, 5 nM NCP; NCP EMSA: 25 mM Tris pH 7.5, 75 mM NaCl, 10% glycerol, 0.005% Tween 20, 4 C; DNA …
AF10PZP E179K (mouse) = test: fluorescence polarization; settings: 75 mM NaCl; S1/2; FP: 25 mM Tris-HCl pH 7.5, 75 mM NaCl, 0.00625% Tween20, 5 mM DTT, 5 nM NCP; NCP EMSA: 25 mM Tris pH 7.5, 75 mM NaCl, 10% glycerol, 0.005% Tween 20, 4 C; DNA …
AF10PZP WT (mouse) = test: fluorescence polarization; settings: S1/2, FP: 25 mM Tris-HCl pH 7.5, 75 mM NaCl, 0.00625% Tween20, 5 mM DTT, 5 nM NCP, NCP EMSA: 25 mM Tris pH 7.5, 75 mM NaCl, 10% glycerol, 0.005% Tween 20, 4 C, DNA …
[3] = biological target: nucleosome core particle reconstituted with 207 bp DNA (NCP207), P0C0S8;P62807;Q71DI3;P62805; test: fluorescence anisotropy; settings: chain shown with the change

## PZP domain of AF10 (AF10PZP, aa 19–208), wild type (from UniProt O54826 19-208) (domain or fragment)
[1]
  S1/2: 6 µM
[2]
  S1/2: 15 µM

## AF10PZP D43K mutant (aa 19–208) (from UniProt O54826 19-208) (domain or fragment)
[1]
  S1/2: 9 µM

## NCP207
AF10PZP D43K (mouse)
  K half: 9 µM
AF10PZP E179K (mouse)
  K half: 14 µM
AF10PZP WT (mouse); 75 mM NaCl
  K half: 6 µM

## 207 bp 601 DNA
AF10PZP WT (mouse)
  K half: 8 µM

## AF10PZP E179K mutant (aa 19–208) (from UniProt O54826 19-208) (domain or fragment)
[1]
  S1/2: 14 µM

## NCP147
AF10PZP WT (mouse); 75 mM NaCl
  K half: 15 µM

B1: PZP domain of AF10 (AF10PZP, aa 19–208), wild type, O54826 D43K (protein)
chain: KEMIGGCCVCSDERGWAENPLVYCKGHGCSVAVHQACYGIVQVPTGPWFCRKCESQERAARVRCELCPHKDGALKRTDNGGWAHVVCALYIPEVQFANVSTMEPIVLQSVPHDRYNKTCYICDEQGRESKAATGACMTCNKHGCRQAFHVTCAQFAGLLCEEEGNGADNVQYCGYCKYHFSKLKKSKRGS
[3]
  Kd: 9 µM
